Measurements published in the PETadex activity labels (doi:10.1016/j.bbagen.2004.12.016).
Changes are numbered by the printed parent chain.

B1: unnamed (protein)
chain: MKQFSAKHALAVVVTAGHALAASTQGISEDLYTRLVEMATISQAAYADLCNIPSTIIKGEKIYNSQTDINGWILRDDSSKEIITVFRGTGSDTNLQLDTNYTLTPFDTLPQCNGCEVHGGYYIGWVSVQDQVESLVKQQVSQYPDYALTVTGHSLGASLAALTAAQLSATYDNIRLYTFGEPRSGNQAFASYMNDAFQASSPDTTQYFRVTHANDGIPNLPPVEQGYAHGGVEYWSVDPYSAQNTFVCTGDEVQCCEAQGGQGVNNAHTTYFGMTSGACTW
B2: unnamed (protein)
chain: B1 chain with D92I
B3: unnamed (protein)
chain: B1 chain with T93R
B4: unnamed (protein)
chain: B1 chain with Y101F
B5: unnamed (protein)
chain: B1 chain with D98N
B6: unnamed (protein)
chain: B1 chain with D98I

Experiments:
[1] = substrate: 2-(1-Naphthyl)butanoic acid; conditions: 37 °C
alpha-Naphthyl caprylate = conditions: pH 5; 37 °C

Protein | Km ([1]; pH 5) | kcat ([1]; pH 5) | kcat/Km ([1]; pH 5) | Km (alpha-Naphthyl caprylate) | kcat (alpha-Naphthyl caprylate) | kcat/Km (alpha-Naphthyl caprylate) | further results
B1 | 330 µM | 2.33 s⁻¹ | 7060 M⁻¹ s⁻¹ | 79 µM | 0.85 s⁻¹ | 10800 M⁻¹ s⁻¹ | 
B2 | 290 µM | 2.7 s⁻¹ | 9310 M⁻¹ s⁻¹ | 50 µM | 0.64 s⁻¹ | 12800 M⁻¹ s⁻¹ | 
B3 | 630 µM | 3.77 s⁻¹ | 5980 M⁻¹ s⁻¹ | 17 µM | 0.32 s⁻¹ | 18800 M⁻¹ s⁻¹ | 
B4 |  |  |  | 20 µM | 1.09 s⁻¹ | 54500 M⁻¹ s⁻¹ | Km ([1]; pH 6): 630 µM; kcat ([1]; pH 6): 3.38 s⁻¹; kcat/Km ([1]; pH 6): 5370 M⁻¹ s⁻¹
B5 |  |  |  |  |  |  | Km ([1]; pH 7): 180 µM; kcat ([1]; pH 7): 32.1 s⁻¹; kcat/Km ([1]; pH 7): 178000 M⁻¹ s⁻¹
B6 |  |  |  |  |  |  | Km ([1]; pH 7.5): 150 µM; kcat ([1]; pH 7.5): 3.72 s⁻¹; kcat/Km ([1]; pH 7.5): 24800 M⁻¹ s⁻¹
